Measurements as given in PMC4770077.

Assays:
Test in all cases: BLI; biotinylated trimeric gp140 immobilised on streptavidin biosensors; Fabs 1-32 uM in solution; 30 C, 1,000 r.p.m.; kinetic buffer (1X PBS, 0.01% BSA, 0.02% Tween 20, 0.005% NaN3); association 4 min, dissociation 8 min; 1:1 binding model; mean of curves with R2 >= 0.95
[1] = biological target: 426c.TM2 soluble trimeric gp140 (426c S278A N460D N463D) (HIV-1 (clade C, 426c))
[2] = biological target: 426c.TM3 soluble trimeric gp140 (426c S278R N460D N463D) (HIV-1 (clade C, 426c))
[3] = biological target: 426c.TM5ΔV1-3 soluble trimeric gp140 (426c N276D S278R N460D N463D G471S ΔV1 V2 V3) (HIV-1 (clade C, 426c))
[4] = biological target: 426c.TM1ΔV1-3 soluble trimeric gp140 (426c N276D N460D N463D ΔV1 V2 V3) (HIV-1 (clade C, 426c))
[5] = biological target: 426c.TM4 soluble trimeric gp140 (426c S278R N460D N463D G471S) (HIV-1 (clade C, 426c))
[6] = biological target: 426c.TM5 soluble trimeric gp140 (426c N276D S278R N460D N463D G471S) (HIV-1 (clade C, 426c))
[7] = biological target: 426c.TM4ΔV1-3 soluble trimeric gp140 (426c S278R N460D N463D G471S ΔV1 V2 V3) (HIV-1 (clade C, 426c))
[8] = biological target: 426c.TM1 soluble trimeric gp140 (426c N276D N460D N463D) (HIV-1 (clade C, 426c))

Substance | Ka [1] | koff [1] | kon [1] | Ka [2] | koff [2] | kon [2] | Ka [3] | koff [3] | kon [3] | Ka [4] | koff [4] | Ka [5] | koff [5] | kon [5] | Ka [6] | koff [6] | kon [6] | Ka [7] | koff [7] | kon [7] | also measured
germline VRC-PG19 Fab | 416000 M⁻¹ | 0.172 s⁻¹ | 71500 M⁻¹ s⁻¹ | 2.24e+06 M⁻¹ | 0.0442 s⁻¹ | 98900 M⁻¹ s⁻¹ | 8.93e+06 M⁻¹ | 0.00216 s⁻¹ | 19300 M⁻¹ s⁻¹ | 353000 M⁻¹ | 0.0315 s⁻¹ | 5.45e+06 M⁻¹ | 0.018 s⁻¹ | 98000 M⁻¹ s⁻¹ | 5.22e+06 M⁻¹ | 0.016 s⁻¹ | 83800 M⁻¹ s⁻¹ | 8.9e+06 M⁻¹ | 0.0027 s⁻¹ | 24100 M⁻¹ s⁻¹ | kon [4]: 11100 M⁻¹ s⁻¹; Ka [8]: 287000 M⁻¹; koff [8]: 0.14 s⁻¹; kon [8]: 40000 M⁻¹ s⁻¹
germline VRC-CH31 Fab | – | – | – | – | – | – | 8950 M⁻¹ | 0.24 s⁻¹ | 2400 M⁻¹ s⁻¹ | – | – | – | – | – | – | – | – | – | – | – | –
germline 12A21 Fab | 201000 M⁻¹ | 0.274 s⁻¹ | 55200 M⁻¹ s⁻¹ | 174000 M⁻¹ | 0.279 s⁻¹ | 48500 M⁻¹ s⁻¹ | 30800 M⁻¹ | 0.0515 s⁻¹ | 1590 M⁻¹ s⁻¹ | – | – | 334000 M⁻¹ | 0.168 s⁻¹ | 56200 M⁻¹ s⁻¹ | 38500 M⁻¹ | 0.403 s⁻¹ | 15500 M⁻¹ s⁻¹ | 311000 M⁻¹ | 0.0305 s⁻¹ | 9470 M⁻¹ s⁻¹ | –
germline VRC01 Fab | 628000 M⁻¹ | 0.0579 s⁻¹ | 36300 M⁻¹ s⁻¹ | 562000 M⁻¹ | 0.064 s⁻¹ | 36000 M⁻¹ s⁻¹ | 1.06e+07 M⁻¹ | 0.00065 s⁻¹ | 6860 M⁻¹ s⁻¹ | 3.09e+06 M⁻¹ | 0.00157 s⁻¹ | 1.08e+06 M⁻¹ | 0.0264 s⁻¹ | 28700 M⁻¹ s⁻¹ | 1.14e+07 M⁻¹ | 0.00225 s⁻¹ | 25600 M⁻¹ s⁻¹ | 1.47e+06 M⁻¹ | 0.00426 s⁻¹ | 6250 M⁻¹ s⁻¹ | kon [4]: 4840 M⁻¹ s⁻¹; Ka [8]: 1.31e+06 M⁻¹; koff [8]: 0.0113 s⁻¹; kon [8]: 14800 M⁻¹ s⁻¹
germline 3BNC60 Fab | – | – | – | – | – | – | 2180 M⁻¹ | 0.477 s⁻¹ | 1040 M⁻¹ s⁻¹ | – | – | – | – | – | – | – | – | 3490 M⁻¹ | 0.398 s⁻¹ | 1410 M⁻¹ s⁻¹ | –
germline VRC-PG20 Fab | 3.88e+06 M⁻¹ | 0.0129 s⁻¹ | 50900 M⁻¹ s⁻¹ | 1.2e+07 M⁻¹ | 0.00487 s⁻¹ | 60500 M⁻¹ s⁻¹ | 2.45e+08 M⁻¹ | 0.000149 s⁻¹ | 41200 M⁻¹ s⁻¹ | 1.24e+07 M⁻¹ | 0.00104 s⁻¹ | 2.28e+07 M⁻¹ | 0.00257 s⁻¹ | 61100 M⁻¹ s⁻¹ | 1.78e+08 M⁻¹ | 0.000553 s⁻¹ | 112000 M⁻¹ s⁻¹ | 3.84e+07 M⁻¹ | 0.000511 s⁻¹ | 24500 M⁻¹ s⁻¹ | kon [4]: 13500 M⁻¹ s⁻¹; Ka [8]: 1.4e+07 M⁻¹; koff [8]: 0.00343 s⁻¹; kon [8]: 49700 M⁻¹ s⁻¹
